# Measurements taken from patent US10213494B2, “Treatment of synucleinopathies” (The Brigham and Women's Hospital, Inc., priority 2007, dated 2019).
# B1: cathepsin F: human lysosomal cysteine protease expressed from CTSF plasmid under a CMV promoter (protein, UniProt Q9UBX1 271-484, looked up)
# Cathepsin F: APPEWDWRSKGAVTKVKDQGMCGSCWAFSVTGNVEGQWFLNQGTLLSLSEQELLDCDKMDKACMGGLPSNAYSAIKNLGGLETEDDYSYQGHMQSCNFSAEKAKVYINDSVELSQNEQKLAAWLAKRGPISVAINAFGMQFYRHGISRPLRPLCSPWLIDHAVLLVGYGNRSDVPFWAIKNSWGTDWGEKGYYYLHRGSGACGVNTMASSAVVD
# B2: wild-type GBA: human acid-beta-glucocerebrosidase expressed from GBA-encoding cDNA plasmid under a CMV promoter (protein, UniProt P04062 40-536, looked up)
# Lysosomal acid …: ARPCIPKSFGYSSVVCVCNATYCDSFDPPTFPALGTFSRYESTRSGRRMELSMGPIQANHTGTGLLLTLQPEQKFQKVKGFGGAMTDAAALNILALSPPAQNLLLKSYFSEEGIGYNIIRVPMASCDFSIRTYTYADTPDDFQLHNFSLPEEDTKLKIPLIHRALQLAQRPVSLLASPWTSPTWLKTNGAVNGKGSLKGQPGDIYHQTWARYFVKFLDAYAEHKLQFWAVTAENEPSAGLLSGYPFQCLGFTPEHQRDFIARDLGPTLANSTHHNVRLLMLDDQRLLLPHWAKVVLTDPEAAKYVHGIAVHWYLDFLAPAKATLGETHRLFPNTMLFASEACVGSKFWEQSVRLGSWDRGMQYSHSIITNLLYHVVGWTDWNLALNPEGGPNWVRNFVDSPIIVDITKDTFYKQPMFYHLGHFSKFIPEGSQRVGLVASQKNDLDAVALMHPDGSAVVVVLNRSSKDVPLTIKDPAVGFLETISPGYSIHTYLWRRQ
# What was measured:
# GBA = settings: Lieberman R et al., (2007); cited from earlier work
# MES-syn cells = assay: LDH release assay of cellular integrity; assay type: cell-based, rodent; settings: enzyme cDNA 5 μg/10 cm dish, versus control vector transfected cells
# Experimental: To confirm that the effect of Cathepsin D on lowering of αS in MES23.5 cells was specific and was not caused by a general decrease in cellular metabolism and integrity, the MTT and LDH assays were performed on MES-syn cells that had been co-transfected with the highest amount of Cathepsin D-encoding cDNA (5 μg/10 cm dish). Lysis of cells with 0.1% Triton-X® 100 served as a positive control, representing maximal cell death.
# To confirm that the effect of Cathepsin F on lowering of αS was specific and was not caused by a general decrease in cellular integrity, the LDH assay was performed on MES-syn cells that had been co-transfected with Cathepsin F-encoding CTSF cDNA (5 μg/10 cm dish). Lysis of cells with 0.1% Triton-X 100 served as a positive control for cell toxicity, promoting maximal cell death.
# [1] = system: α-synuclein protein (wild-type, human) in MES23.5 cells; assay: Sandwich ELISA of intracellular α-synuclein in MES23.5 cells co-transfected with wild-type human SNCA cDNA and lysosomal enzyme cDNA; assay type: cell-based; settings: cathepsin F cDNA 5 μg/10 cm dish, 24 hours, n=3
# [2] = system: α-synuclein protein (wild-type, human) in MES23.5 cells; assay: as above; assay type: cell-based; settings: GBA variant plasmid 5 μg per 10 cm dish + 0.5 μg SNCA cDNA, 24 hours after transfection, no prosaposin; mean+/−sem
# Experimental: Sera from six rabbits were raised and affinity-purified at Open Biosystems, Inc. (openbiosystems.com) against recombinant, full-length human αS. Recombinant αS had been HPLC- and MS-characterized and subjected to amino acid composition and protein concentration analyses. For ELISA, 384-well MaxiSorp plates (Nunc, Inc) were coated with 50 μl/well capturing polyclonal Ab (hSA-2) diluted in coating buffer (NaHCO3 with 0.2% NaN3, pH 9.6). Following washes with PBS/0.05% Tween-20 (PBS-T), plates were blocked for 2 hours at 37° C. in blocking buffer (1.125% fish skin gelatin; PBS-T). After 4 washes, samples were loaded and incubated at 4° C. for 12 hours. Biotinylated Syn-1 mAb (as the assaying Ab) was generated using 200 μg Sulfo-NHS-LC Biotin (Pierce), diluted in blocking buffer and added to the plate for 2 hours at 37° C. Following 4 washes, ExtrAvidin phosphatase (Sigma) diluted in blocking buffer was applied for 1 hr at 37° C. Color development was carried out by using Fast-p-Nitrophenyl Phosphate (Sigma) and monitored kinetically at OD 405 nm every 5 minutes for up to 60 minutes.
# To optimize a ‘DNA: LIPOFECTAMINE® 2000’ ratio with low cell toxicity, MES23.5 cells were transfected with either 0.25, 0.5 or 1 μg αS-encoding, wild-type, human SNCA cDNA plus empty vector cDNA up to a total of 5.5 μg DNA per 10 cm dish. 24 hours after transfection, cell lysates were harvested as described above. For serial dilutions of cell lysates, blocking buffer containing 0.5% lysate from vector-transfected wells was used as diluent, which was also used to create the blank and the corresponding standard curve of recombinant human αS. Saturation kinetics were examined for identification of time point(s) where standards and sample dilutions were in the log phase.
# MES cells were transfected with 0.5 μg per 10 cm dish of αS-encoding SNCA cDNA-carrying plasmid, plus 5 μg per 10 cm dish of wild-type or mutant, human GBA-encoding plasmid. The GBA variants used were wild type, N370S, D409H, L444P, E235A, and E340A. These 5 GBA mutants were created by site-directed mutagenesis, using the Quickchange® kit (Stratagene), and sequence-verified. The N370S, D409H and L444P are known to occur (in the homozygous or compound heterozygous state) in Gaucher disease in the heterozygous state in Parkinson Disease patients and/or patients with dementia with Lewy bodies. The E235A and E340A mutant GBA proteins are not known to occur in people.
# 24 hours after transfection, MES cells were lysed as described above and all lysates were analyzed by ELISA. […] This is in contrast to the result observed in Example 5 above. The observed discrepancy can reflect the differences in total DNA transfected in the two paradigms (FIG. 2B; FIG. 2C versus FIG. 4), thereby leading to changes in the DNA:LIPOFECTAMINE® 2000 ratio, and in the role of co-expressed prosaposin (saposin C). It is therefore conceivable that wild-type GBA can have variable effects on αS levels in these MES23.5 cells, depending on the rate of αS import into lysosomes and the composition as well as activation state of more than one lysosomal enzyme.
# MES23.5 cells were transfected with 0.5 μg per 10 cm dish of an αS-encoding, wild-type, human SNCA cDNA-carrying plasmid (referred to as MES-hSNCA WT cells in the Western blot shown in FIG. 6), plus either 1.25, 2.5 or 5 μg per 10 cm dish of a human Cathepsin D-encoding CTSD cDNA plasmid, which was purchased from OriGene Technologies, Inc., and was under the control of a CMV promoter. The Cathepsin D clone was fully sequence-verified after isolation and maxiprep. Each transfection arm was balanced with empty vector DNA up to a total of 5.5 μg DNA per 10 cm dish. 24 hours after transfection, cells were lysed, and the resulting lysates were analyzed by the sandwich ELISA described herein. […]
# [3] = system: α-synuclein protein in MES23.5 cells; assay: Western blot of α-synuclein in co-transfected MES23.5 cells; assay type: cell-based, human; settings: 24 hours
# Experimental: Cells were transfected with 0, 0.25, 0.5, 1, 5, and 10 μg (per 10 cm dish) of plasmid. 24 hours later, cells were washed with Tris-buffered saline and lysed in 140 mM NaCl, 50 mM Tris-Hcl, pH 8.0, 1 mM EDTA, 0.5% Triton-X100, and 1× protease inhibitors. Lysates were centrifuged at 100,000×g for 30 min at 4° C.; the top 2/3 of supernatants were removed and frozen in siliconized tubes at −80° C. Samples were run on SDS/PAGE, using 1 mM DTT as the reducing agent. Expression of the αS protein was confirmed at 24 hours post-transfection by Western blotting, where cell lysates were probed with a monoclonal antibody against αS protein (syn-1 antibody, BD Transduction Labs).
# MES23.5 cells were transfected with 0.5 μg αS-encoding SNCA cDNA per 10 cm dish plus either 1.25, 2.5 or 5 μg (low, medium, or high) GBA-encoding cDNA in the absence or presence of 5 μg of Prosaposin-encoding cDNA. All arms of the experiment were balanced up to a total of 10.5 μg cDNA per 10 cm dish using empty vector cDNA. The GBA- and Prosaposin-encoding cDNA plasmids under a CMV promoter, as well as the pCMV-XL5 empty vector were purchased from OriGene Technologies, Inc (clones had been fully sequence-verified after isolation and a maxiprep). 24 hours later, cells were lysed and probed for GBA and αS protein levels. The upper panel in of FIG. 2B3 is a representation of a Western Blot indicating expression of GBA protein in the absence and presence of co-transfected prosaposin. GBA was probed using the monoclonal antibody 8E4. GBA over-expression occurred in a slightly gene-dosage dependent way in the absence of prosaposin. In the presence of prosaposin over-expression, the GBA signal itself was decreased. […]
molecule,measurement,setting,value
OC[C@H]1CNC[C@@H](O)[C@@H]1O [isofagomine],effect on GBA activity,GBA,increase GBA activity in mice and humans
B1,LDH signal,MES-syn cells,less than or equal to that of control vector transfected cells
same,"intracellular α-synuclein level, % of control levels",[1],51.7+/−14.1%
B2,"intracellular α-synuclein level, % of vector cDNA control levels",[2],109.7+/−9.88%
same,α-synuclein protein level by Western blot,"[3]; GBA cDNA 1.25, 2.5 or 5 μg + 0.5 μg SNCA cDNA, absence of co-transfected prosaposin",lowered the co-expressed α-synuclein protein levels at the largest amount of co-transfected GBA cDNA
same,α-synuclein protein level by Western blot,[3]; GBA cDNA low/medium/high with 5 μg Prosaposin-encoding cDNA,strong decrease in α-synuclein protein levels at even the lower concentrations
